# Assay results from paper PMC4218952.
# Target: Myc-GluK2a (UniProt Q13002)
# Test: co-IP; HEK293T cells transfected with FLAG-parkin and Myc-GluK2a or its truncation mutants; 500 ug lysate, Myc, parkin or FLAG antibody overnight at 4 C, Protein A or G agarose, washes with 500 mM NaCl, 1% Triton X-100; also after activation with 10 mM glutamate
# UniProt Q13002, sequence (Q13002 32-908): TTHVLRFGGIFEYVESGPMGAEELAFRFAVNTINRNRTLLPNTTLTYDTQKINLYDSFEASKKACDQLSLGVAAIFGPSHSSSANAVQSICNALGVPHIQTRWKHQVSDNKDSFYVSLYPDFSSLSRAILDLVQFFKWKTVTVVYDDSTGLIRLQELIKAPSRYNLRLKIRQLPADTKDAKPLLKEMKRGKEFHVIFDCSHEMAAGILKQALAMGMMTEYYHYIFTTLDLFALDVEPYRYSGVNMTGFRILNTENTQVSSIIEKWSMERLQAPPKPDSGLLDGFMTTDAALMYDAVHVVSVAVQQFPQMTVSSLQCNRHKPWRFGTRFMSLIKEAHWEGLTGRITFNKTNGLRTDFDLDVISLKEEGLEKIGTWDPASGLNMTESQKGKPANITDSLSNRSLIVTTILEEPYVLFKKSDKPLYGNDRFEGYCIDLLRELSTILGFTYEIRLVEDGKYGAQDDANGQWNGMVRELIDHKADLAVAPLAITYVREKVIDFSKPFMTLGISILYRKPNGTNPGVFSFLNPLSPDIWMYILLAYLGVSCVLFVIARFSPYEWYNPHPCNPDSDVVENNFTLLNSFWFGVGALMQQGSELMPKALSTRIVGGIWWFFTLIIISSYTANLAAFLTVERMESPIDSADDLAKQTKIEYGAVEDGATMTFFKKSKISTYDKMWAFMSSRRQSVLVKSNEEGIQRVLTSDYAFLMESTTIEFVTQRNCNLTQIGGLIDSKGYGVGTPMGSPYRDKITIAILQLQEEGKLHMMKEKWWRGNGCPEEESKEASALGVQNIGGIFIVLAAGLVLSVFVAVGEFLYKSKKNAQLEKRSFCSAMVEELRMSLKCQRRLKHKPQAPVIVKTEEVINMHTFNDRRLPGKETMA
# FLAG-parkin, sequence (O60260 whole entry, the tested form may be a part): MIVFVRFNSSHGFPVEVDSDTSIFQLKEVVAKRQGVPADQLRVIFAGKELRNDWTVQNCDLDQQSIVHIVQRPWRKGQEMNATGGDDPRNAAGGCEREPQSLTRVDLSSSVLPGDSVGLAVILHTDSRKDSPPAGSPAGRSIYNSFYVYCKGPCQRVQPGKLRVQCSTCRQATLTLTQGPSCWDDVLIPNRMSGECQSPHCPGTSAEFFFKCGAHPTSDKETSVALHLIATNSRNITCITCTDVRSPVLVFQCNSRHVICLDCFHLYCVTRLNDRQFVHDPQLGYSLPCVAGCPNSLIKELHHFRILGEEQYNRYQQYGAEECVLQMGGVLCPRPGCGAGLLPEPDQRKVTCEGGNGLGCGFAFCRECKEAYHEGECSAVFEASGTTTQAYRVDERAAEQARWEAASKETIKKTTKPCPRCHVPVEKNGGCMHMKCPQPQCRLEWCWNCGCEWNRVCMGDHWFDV
substance,measurement,value
FLAG-parkin (from UniProt O60260 1-465) (enzyme),"co-immunoprecipitation after 10 mM glutamate, relative to untreated (fold of untreated)",2.7
